Experimental data published in patent US10689452 (UNIVERSIT T STUTTGART, dated 2020).

Legend:
[1] = target: T1, human TNFR1-Fc fusion protein (human, UniProt P19438 29-211); assay: ELISA, immobilised human TNFR1-Fc
T1 construct: range 29-211; Made in stably transfected HEK293 cells; coated on ELISA plates or immobilised on QCM chips; also called huTNFR1-Fc; human TNFR-Fc; not shown: Fc part from vector pSecTagL1-Fc
T1 sequence (looked up): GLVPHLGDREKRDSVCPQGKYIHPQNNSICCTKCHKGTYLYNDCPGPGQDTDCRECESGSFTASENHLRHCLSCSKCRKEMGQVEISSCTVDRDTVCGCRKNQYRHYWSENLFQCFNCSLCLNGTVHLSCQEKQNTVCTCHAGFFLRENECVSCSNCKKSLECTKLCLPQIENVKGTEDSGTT

[2] = target: T2, human TNFR1 on cells (HT1080, HeLa, Kym-1) (human, UniProt P19438 30-455); assay: cell-based or functional assay
T2 sequence (looked up): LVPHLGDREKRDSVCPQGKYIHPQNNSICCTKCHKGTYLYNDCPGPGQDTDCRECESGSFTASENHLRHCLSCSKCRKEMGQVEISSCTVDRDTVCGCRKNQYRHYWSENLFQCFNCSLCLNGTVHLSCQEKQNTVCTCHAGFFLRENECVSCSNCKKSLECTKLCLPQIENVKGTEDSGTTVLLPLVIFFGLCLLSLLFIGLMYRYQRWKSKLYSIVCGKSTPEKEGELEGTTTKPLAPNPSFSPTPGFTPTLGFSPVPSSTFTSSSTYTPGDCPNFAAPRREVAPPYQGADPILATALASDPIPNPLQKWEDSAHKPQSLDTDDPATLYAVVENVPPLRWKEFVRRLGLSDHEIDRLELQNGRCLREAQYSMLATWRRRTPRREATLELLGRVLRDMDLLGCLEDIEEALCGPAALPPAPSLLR

[3] = target: T2, human TNFR1 on cells (HT1080, HeLa, …); assay: cell-based or functional assay; remark: listed apart in the source
[4] = target: T1, human TNFR1-Fc fusion protein; assay: ELISA on coated human TNFR1-Fc, scFv titrated, signal as Binding [%]
Description: FIG. 9. Binding to and blockade of human TNFR1.
Microtiter plates were coated with 100 µl of the indicated protein (1 µg/ml in PBS, see Table 3.3) and incubated at 4° C. over night. The residual binding sites were blocked with 2% MPBS (skim milk in PBS, 200 µl per well) at room temperature for 2 hours and subsequently washed twice with PBS. 100 µl of the samples diluted in 2% MPBS were incubated at room temperature for 1 hour prior to the last incubation step with 100 µl of the HRP conjugated detection antibodies in 2% MPBS. In the case of competition experiments, both analyzed protein samples were prepared individually (either titrated or diluted to a single concentration) and mixed before they were applied to the plate. Bound protein was detected with 100 µl TMB substrate solution, the HRP-reaction was stopped by the addition of 50 µl 1 M H2SO4 and the absorption at the wavelength of 450 nm was measured using the Infinite microtiter plate reader (TECAN, Maennedorf, Switzerland). Between each incubation step and in advance of the detection, the plates were washed three times with PBST and twice with PBS.

[5] = target: T2, human TNFR1 on cells (HT1080, HeLa, …); assay: cell-based or functional assay; remark: listed apart in the source
[6] = target: T1, human TNFR1-Fc fusion protein; assay: ELISA, human TNFR1-Fc
[7] = target: T1, human TNFR1-Fc fusion protein; assay: ELISA, immobilised human TNFR1-Fc; remark: listed apart in the source

Binder	EC50 [1] [µM]	IL-8 Inhibition IC50 [nM] (HT1080 cells, 0.1 nM soluble TNF) [2]	binding result [4]	also measured
Fv13.7-Fckih0DS (Fc fusion, also called monovalent Fv13.7-Fc fusion protein) chain 1: HVQLVQSGAEVKKPGSSVKVSCKASGYTFTDFYINWVRQAPGQGLEWIGEIVPSQGEAKYNDKFKARVTITADKSTSTAYMELSSLRSEDTAVYYCARWDFLDYWGQGTTVTVSSGTDKTHTSPPSPAPPVAGPSVFLFPPKPKDTLMISRTPEVTCVVVDVSHEDPEVKFNWYVDGVEVHNAKTKPREEQYNSTYRVVSVLTVLHQDWLNGKEYKCKVSNKGLPSSIEKTISKAKGQPREPQVYTLPPSRDELTKNQVSLSCAVKGFYPSDIAVEWESNGQPENNYKTTPPVLDSDGSFFLVSKLTVDKSRWQQGNVFSCSVMHEALHNHYTQKSLSLSPGK chain 2: DVQMTQSPSSLSASVGDRVTITCRSSQSLLHSNGNTYLHWYQQKPGKAPKLLIYTVSNRFSGVPSRFSGSGSGTDFTLTISSLQPEDFATYYCSQSTHVPYTFGGGTKVEIKGTDKTHTSPPSPAPPVAGPSVFLFPPKPKDTLMISRTPEVTCVVVDVSHEDPEVKFNWYVDGVEVHNAKTKPREEQYNSTYRVVSVLTVLHQDWLNGKEYKCKVSNKGLPSSIEKTISKAKGQPREPQVYTLPPSRDELTKNQVSLWCLVKGFYPSDIAVEWESNGQPENNYKTTPPVLDSDGSFFLYSKLTVDKSRWQQGNVFSCSVMHEALHNHYTQKSLSLSPGK	0.0003	30.7	–	–
Fab13.7-Fckih0DS (Fc fusion, knobs-into-holes heterodimer, FcgammaR-silenced, no hinge disulfides; also called monovalent Fab13.7-Fc fusion protein) chain 1: HVQLVQSGAEVKKPGSSVKVSCKASGYTFTDFYINWVRQAPGQGLEWIGEIVPSQGEAKYNDKFKARVTITADKSTSTAYMELSSLRSEDTAVYYCARWDFLDYWGQGTTVTVSSASTKGPSVFPLAPSSKSTSGGTAALGCLVKDYFPEPVTVSWNSGALTSGVHTFPAVLQSSGLYSLSSVVTVPSSSLGTQTYICNVNHKPSNTKVDKKVEPKSCGTDKTHTSPPSPAPPVAGPSVFLFPPKPKDTLMISRTPEVTCVVVDVSHEDPEVKFNWYVDGVEVHNAKTKPREEQYNSTYRVVSVLTVLHQDWLNGKEYKCKVSNKGLPSSIEKTISKAKGQPREPQVYTLPPSRDELTKNQVSLSCAVKGFYPSDIAVEWESNGQPENNYKTTPPVLDSDGSFFLVSKLTVDKSRWQQGNVFSCSVMHEALHNHYTQKSLSLSPGK chain 2: DVQMTQSPSSLSASVGDRVTITCRSSQSLLHSNGNTYLHWYQQKPGKAPKLLIYTVSNRFSGVPSRFSGSGSGTDFTLTISSLQPEDFATYYCSQSTHVPYTFGGGTKVEIKRTVAAPSVFIFPPSDEQLKSGTASVVCLLNNFYPREAKVQWKVDNALQSGNSQESVTEQDSKDSTYSLSSTLTLSKADYEKHKVYACEVTHQGLSSPVTKSFNRGECGTDKTHTSPPSPAPPVAGPSVFLFPPKPKDTLMISRTPEVTCVVVDVSHEDPEVKFNWYVDGVEVHNAKTKPREEQYNSTYRVVSVLTVLHQDWLNGKEYKCKVSNKGLPSSIEKTISKAKGQPREPQVYTLPPSRDELTKNQVSLWCLVKGFYPSDIAVEWESNGQPENNYKTTPPVLDSDGSFFLYSKLTVDKSRWQQGNVFSCSVMHEALHNHYTQKSLSLSPGK	0.0005	61.2	–	fold higher IC50 (IL-8 release inhibition) compared to Fab13.7 [3]: 2.3 fold
scFvFRK13.8 (scFv, V domains shown) VH: QVQLVESGGGLVKPGGSLRLSCAASGFTFSDFYINWIRQAPGKGLEWVSEIYPYSGHAYYNEKFKARFTISADNAKNSLYLQMNSLRAEDTAVYYCARWDFLDYWGQGTTVTVSS VL: DIVMTQSPLSLPVTPGEPASISCRSSQSLLHSNGNTYLHWYLQKPGQSPQLLIYTVSNRFSGVPDRFSGSGSGTDFTLKISRVEAEDVGVYYCSQGTHVPYTFGGGTKVEIK	–	–	binds	–
scFvFRK13.7 (scFv, V domains shown) VH: HVQLVQSGAEVKKPGSSVKVSCKASGYTFTDFYINWVRQAPGQGLEWIGEIVPSQGEAKYNDKFKARVTITADKSTSTAYMELSSLRSEDTAVYYCARWDFLDYWGQGTTVTVSS VL: DVQMTQSPSSLSASVGDRVTITCRSSQSLLHSNGNTYLHWYQQKPGKAPKLLIYTVSNRFSGVPSRFSGSGSGTDFTLTISSLQPEDFATYYCSQSTHVPYTFGGGTKVEIK	–	–	–	IC50 (nM), inhibition of TNF-induced IL-8 release from HT1080 cells [5]: 284 nM; EC50 [6]: 0.00109 µM
Fab13.7PEG (Fab, V domains shown, PEG (printed 'PEG400.000' in paragraph 589; methoxy-PEG 40 kDa maleimide in paragraph 649) conjugated to the newly introduced cysteine of the C-terminal ...DKTHTCAA (SEQ ID 34), also called PEGylated Fab13.7'; PEGylated derivative of Fab13.7) VH: HVQLVQSGAEVKKPGSSVKVSCKASGYTFTDFYINWVRQAPGQGLEWIGEIVPSQGEAKYNDKFKARVTITADKSTSTAYMELSSLRSEDTAVYYCARWDFLDYWGQGTTVTVSS VL: DVQMTQSPSSLSASVGDRVTITCRSSQSLLHSNGNTYLHWYQQKPGKAPKLLIYTVSNRFSGVPSRFSGSGSGTDFTLTISSLQPEDFATYYCSQSTHVPYTFGGGTKVEIKR	0.005	98.2	–	fold increased EC50 compared to unmodified Fab13.7 [7]: 2.6 fold; fold higher IC50 (IL-8 release inhibition) compared to Fab13.7 [3]: 4.9 fold
scFvFRK13.1 (scFv, V domains shown) VH: QVQLVESGGGLVKPGGSLRLSCAASGFTFSDFYINWIRQAPGKGLEWVSEIYPYSGHAYYNEKFKARFTISRDNAKNSLYLQMNSLRAEDTAVYYCARWDFLDYWGQGTTVTVSS VL: DIQMTQSPSSLSASVGDRVTITCRSSQSLLHSNGNTYLHWYQQKPGKAPKLLIYTVSNRFSGVPSRFSGSGSGTDFTLTISSLQPEDFATYYCSQSTHVPYTFGGGTKVEIK	–	–	binds	–
scFvFRK13.5 (scFv, V domains shown, also called scFvFKR13.5) VH: HVQLVQSGAEVKKPGSSVKVSCKASGYTFTDFYINWVRQAPGQGLEWIGEIVPSQGEAKYNDKFKARVTITADKSTSTAYMELSSLRSEDTAVYYCARWDFLDYWGQGTTVTVSS VL: DIQMTQSPSSLSASVGDRVTITCRSSQSLLHSNGNTYLHWYQQKPGKAPKLLIYTVSNRFSGVPSRFSGSGSGTDFTLTISSLQPEDFATYYCSQSTHVPYTFGGGTKVEIK	–	–	–	IC50 (nM), inhibition of TNF-induced IL-8 release from HT1080 cells [5]: 367 nM; EC50 [6]: 0.00106 µM
scFvFRK13.3 (scFv, V domains shown) VH: QVQLVESGGGLVKPGGSLRLSCAASGFTFSDFYINWIRQAPGKGLEWVSEIYPYSGHAYYNEKFKARFTISRDNAKNSLYLQMNSLRAEDTAVYYCARWDFLDYWGQGTTVTVSS VL: DVQMTQSPSSLSASVGDRVTITCRSSQSLLHSNGNTYLHWYQQKPGKAPKLLIYTVSNRFSGVPSRFSGSGSGTDFTLTISSLQPEDFATYYCSQSTHVPYTFGGGTKVEIK	–	–	binds	–
scFvFRK13.4 (scFv, V domains shown) VH: QVQLVESGGGLVKPGGSLRLSCAASGFTFSDFYINWIRQAPGKGLEWVSEIYPYSGHAYYNEKFKARFTISADNAKNSLYLQMNSLRAEDTAVYYCARWDFLDYWGQGTTVTVSS VL: DIQMTQSPSSLSASVGDRVTITCRSSQSLLHSNGNTYLHWYQQKPGKAPKLLIYTVSNRFSGVPSRFSGSGSGTDFTLTISSLQPEDFATYYCSQSTHVPYTFGGGTKVEIK	–	–	binds	–
